According to US8754034B2, “Structure-based design of peptide inhibitors of amyloid fibrillation” (The Regents of the University of California, priority 2009, dated 2014):
Entries after “also recorded” stand apart in the source; their conditions may differ. Where no end group is shown, it is not given here. [ ]: non-standard residue; d: D form.

Key:
[1] = target: T1, tau K12 (Homo sapiens, UniProt P10636); experiment: Fibril formation inhibition assay of tau K12 monitored by ThS fluorescence; format: biochemical; settings: for effect on K12 fibrillation, comparison between peptides: ThS fluorescence, ratio not given (FIG. 4); for effect on tau K12 fibrillation (ThS fluorescence): peptide at equimolar ratio with K12; for ratio (concentration) dependence of the delay of K12 fibrillation (lag time): various molar ratios of peptide to K12 (FIGS. 5, 6); for average lag time of K12 fibrillation: peptide at equimolar ratio with K12 (FIG. 10b)
T1 construct: starting Met residue (added initiator methionine before Q244) (N); made in house; host or cells: E. coli BL21 (DE3), vector pNG2 (pET-3b derivative)
Method: 150 μL reactions containing 50 or 100 μM tau K12, as determined by the micro BCA Protein Assay Kit (Pierce), were incubated in 250 mM sodium phosphate buffer pH 7.4 with 1 mM DTT, 3 μM heparin, and 10 μM ThS (Friedhoff et al., 1998; Perez et al., 1996; Schweers et al., 1995). Peptides were dissolved in 250 mM sodium phosphate buffer pH 7.4 and added at various molar ratios to the reaction mixtures. The fluorescence signal was measured every 15 minutes with excitation and emission wavelengths of 440 and 510 nm, respectively, at 37° C. with continuous shaking at 900 rpm with a diameter of 1 mm in a Varioskan plate reader (Thermo Fisher Scientific, Inc.). Reactions were split into a minimum of 3 replicates in Nunc optically clear bottom, 96-well black plates, sealed with Corning pressure seal tape and monitored for various times. Each experiment was repeated a minimum of four times yielding the same results.

[2] = target: amyloid β protein (Homo sapiens, UniProt P05067); experiment: Amyloid beta fibrillation monitored by thioflavin T fluorescence; format: biochemical; settings: thioflavin T fluorescence (FIG. 4b)
Excerpt: In FIG. 4(b), fibril formation of amyloid beta (abeta) protein is not delayed by addition of D-TLKIVW. Tau K12 fibrillation is monitored by ThS fluorescence and amyloid beta fibrillation is monitored by thioflavin T fluorescence.

[3] = target: T1, tau K12; experiment: Electron microscopy of tau K12 fibril formation in the presence of peptides; format: biochemical; settings: K12 incubated with peptide, with or without ThS
Method: 5 μL of sample were applied to glow discharged 400 mesh carbon-coated formar films on copper grids (Ted Pella, Inc.) for three minutes. Grids were rinsed twice with distilled water and stained with 1% uranyl acetate for 90 seconds. Grids were examined in a Hitachi H-7000 transmission electron microscope at 75 kEv.

[4] = target: tau K12 construct (UniProt P10636-8 244-274; P10636-8 306-394, limits assumed); experiment: cell-based or functional assay
Chain of tau K12 construct (P10636 other isoform, or with tags, fused parts or gaps limits assumed): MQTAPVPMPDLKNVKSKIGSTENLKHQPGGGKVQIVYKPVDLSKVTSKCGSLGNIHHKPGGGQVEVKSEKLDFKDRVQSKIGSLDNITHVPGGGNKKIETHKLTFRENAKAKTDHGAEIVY

T1 sequence (P10636 186-305 isoform P10636-2): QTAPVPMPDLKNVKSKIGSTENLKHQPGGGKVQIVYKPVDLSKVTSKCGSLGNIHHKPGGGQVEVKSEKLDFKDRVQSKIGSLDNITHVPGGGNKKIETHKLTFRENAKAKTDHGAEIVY
Chain of amyloid β protein (P05067 672-713 limits assumed): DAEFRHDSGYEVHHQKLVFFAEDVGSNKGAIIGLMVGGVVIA

With “D-DYYFEF ([dD][dY][dY][dF][dE][dF]) [D-amino acid peptide designed to pack against the bottom of the VQIVYK atomic structure]” the “effect on K12 fibrillation, comparison between peptides” value (shortened to “effect on K12 fibrillation”) [1] was “improved capping over D-DYYFEK”, the “effect on tau K12 fibrillation (ThS fluorescence)” value (“effect on tau K12 fibrillation” below) [1] was “no inhibition” and the “ratio (concentration) dependence of the delay of K12 fibrillation (lag time)” value (“ratio (concentration) dependence” below) [1] was “delayed K12 fibrillation in a concentration dependent manner; also recorded: some effect at delaying fibrillation”.

With D-DYYFEK ([dD][dY][dY][dF][dE][dK]) the “effect on tau K12 fibrillation” value [1] was “all peptides except D-DYYFEK systematically delayed fibrillation”.

For “D-GVIGIA (G[dV][dI]G[dI][dA]) [D-amino acid control peptide, a stereoisomer of an L-amino acid peptide known to aggregate on its own, reference compound]”, the “effect on tau K12 fibrillation” value [1] was “no effect on fibrillation; also recorded: without any effect on fibrillation”.

For “D-LKTWIV ([dL][dK][dT][dW][dI][dV]) [scrambled peptide of D-TLKIVW, reference compound]”, the “effect on K12 fibrillation” value [1] was “does not delay the onset of K12 fibrillation”.

With “D-TIKWVL ([dT][dI][dK][dW][dV][dL]) [scrambled peptide of D-TLKIVW, order of residues scrambled in one face]” the “effect on K12 fibrillation” value [1] was “does not delay the onset of K12 fibrillation” and the “effect on tau K12 fibrillation” value [1] was “some inhibitory effect; also recorded: not nearly as effective as D-TLKIVW”.

With “D-TIWKVL ([dT][dI][dW][dK][dV][dL]) [scrambled peptide of D-TLKIVW, reference compound]” the “effect on K12 fibrillation” value [1] was “does not delay the onset of K12 fibrillation”.

In the case of “D-TLKIVW ([dT][dL][dK][dI][dV][dW]) [D-amino acid peptide designed to pack against the top of the VQIVYK fibril-like structure of tau]”, the “effect on fibril formation of amyloid beta protein” value [2] is reported as “no effect on fibrillation; also recorded: not delayed”, the “fibril formation of K12 seen by electron microscopy” value (shortened to “fibril formation of K12 seen”) [3] is reported as “there were no fibrils; also recorded: prevents fibril formation; also recorded: fibrils do not form” and the “molar ratio of peptide relative to tau K12 at which a marginal effect on delay of fibrillation was observed” value [1] is reported as 50 fold less peptide relative to tau K12 concentration. The “time without ThS signal” value ([1]; 50 μM K12, peptide at 2-fold and 5-fold excess, some of the samples) was over 300 h, the “time without fibril formation” value ([1]; 2-fold or 5-fold excess peptide, some experiment replicates) was “more than 2 weeks” and the “effect on K12 fibrillation” value [1] was “the most effective peptide; also recorded: delays fibrillation relative to K12 alone”. For the same molecule, the “effect on tau K12 fibrillation” value [1] was “inhibition for several days”, the “average lag time of K12 fibrillation” value [1] was “over 140 hours” and the “effect on tau K12 fibrillation” value ([1]; listed as D-amino acid peptide TLKIVW) was “prevents the formation of K12fibrils”. The “ratio (concentration) dependence” value [1] was “delayed longer by higher concentrations of the D-peptide”.

In the case of “D-TWKLVL ([dT][dW][dK][dL][dV][dL]) [D-amino acid peptide designed to pack against the top of the VQIVYK fibril structure]”, the “fibril formation of K12 seen” value [3] is reported as “Fibrils do not form”, the “fibril formation of K12 seen” value ([3]; listed as DTWKLVL) is reported as “there were no fibrils” and the “molar ratio of peptide relative to tau K12 at which a marginal effect on delay of fibrillation was observed” value [1] is reported as 10 fold less peptide relative to tau K12 concentration. For the same molecule, the “duration of effective inhibition of K12 fibrillation” value ([1]; 5-fold excess peptide) was “about 1 week”, the “peptide concentration relative to K12 at which an inhibitory effect is still seen” value ([1]; ThS fluorescence (FIGS. 5, 6)) was 10 % the molar concentration of K12 and the “delay of K12 fibrillation” value ([1]; peptide at equimolar ratio with K12 (FIG. 3a)) was “more than 30 hours”. The “ratio (concentration) dependence” value [1] was “still were inhibiting fibrillation of K12”.

“D-YVIIER ([dY][dV][dI][dI][dE][dR]) [D-amino acid peptide designed to pack against the bottom of the VQIVYK fibril structure]” was tested, and the “effect on tau K12 fibrillation” value [1] was “some delay” and the “ratio (concentration) dependence” value [1] was “delayed K12 fibrillation in a concentration dependent manner; also recorded: clear ratio dependence”.

“L-TLKIVW (SEQ ID NO: 3) [L-amino acid enantiomer of D-TLKIVW]” was tested, and the “effect on K12 fibrillation” value [1] was “able to inhibit fibril formation, but not nearly as long as D-TLKIVW”, the “effect on tau K12 fibrillation” value [1] was “able to inhibit fibril formation, but not nearly as long as D-TLKIVW; also recorded: not nearly as effective as D-TLKIVW” and the “average lag time of K12 fibrillation” value [1] was “about 40 hours”.

“L-VQIVYK (SEQ ID NO: 1) [steric zipper segment of tau, used as control peptide, reference compound]” was tested, and the “effect on tau K12 fibrillation” value [1] was “no significant effect on fibrillation” and the “effect on tau K12 fibrillation” value ([1]; listed as VQIVYK) was “no effect at equimolar concentrations or in excess”.

B1: D-TIKWVL (peptide)
peptide: [dT][dI][dK][dW][dV][dL]
In the case of B1, the “average lag time of K12 fibrillation (ThS fluorescence), equimolar ratio” value [4] is reported as 54 h.

B2: D-TWKLVL (designed binder)
peptide: [dT][dW][dK][dL][dV][dL]
For B2, the “delay of K12 fibrillation at equimolar ratio (ThS fluorescence)” value [4] was over 30 h, the “duration of inhibition of K12 fibrillation at 5-fold excess peptide” value [4] was about 1 week and the “molar amount of peptide relative to tau K12 construct to delay fibrillation” value [4] was 10 fold less peptide than K12.

B3: D-TLKIVW (designed binder)
peptide: [dT][dL][dK][dI][dV][dW]
With B3 the “average lag time of K12 fibrillation (ThS fluorescence), equimolar ratio” value [4] was over 140 h, the “molar amount of peptide relative to tau K12 construct to delay fibrillation” value [4] was 50 fold less peptide than K12 and the “time without K12 fibrils at 2-fold or 5-fold excess peptide” value [4] was over 2 weeks.
